Columns and labels:
[1] = biological target: Thermoproteota archaeon TasR (TaTasR) (Thermoproteota archaeon isolate LB_CRA_1); assay: cryo-EM structure; TasR tigRNA1 RNP (16 uM) mixed with 60-bp target DNA (8 uM), 29 mM HEPES-KOH pH 7.9, 149 mM KCl, 5 mM MgCl2, 42 C for 1 h; 2D classification of the final particles with a large box and a 300 A circular mask
[2] = biological target: Thermoproteota archaeon TasR (TaTasR), TIGR-associated protein with an N-terminal RuvC nuclease domain and a Nop domain (Thermoproteota archaeon isolate LB_CRA_1); assay: cryo-EM structure; TasR tigRNA1 RNP (16 uM) mixed with a 60-bp DNA target (8 uM) in 29 mM HEPES-KOH pH 7.9, 149 mM KCl, 5 mM MgCl2; 42°C for 1 hour, then on ice for 3 hours; post-cleavage product complex

stoichiometry N [1] | stoichiometry N [2] | Substance
2 | – | Thermoproteota archaeon TasR (TaTasR) (enzyme)
– | 2 | Thermoproteota archaeon TasR (TaTasR), TIGR-associated protein with an N-terminal RuvC nuclease domain and a Nop domain (enzyme)
